Source: US20190077883A1

How the values were obtained:
[1] = molecular target: GST-tagged human FcRn (human; Schistosoma japonicum) (UniProt P55899); test: ELISA pH 6.0, h9C12 variant captured on AdV5 hexon, GST-hFcRn detected with anti-GST-HRP
[2] = molecular target: Monomeric His-tagged human FcRn (human) (UniProt P55899); test: SPR Biacore 3000, IgG immobilised, monomeric hFcRn injected, pH 6.0, 1:1 Langmuir
[3] = molecular target: Monomeric His-tagged human FcRn (human) (UniProt P55899); test: SPR Biacore 3000, pH 6.0, KD against IgG1 WT
[4] = molecular target: Monomeric His-tagged human FcRn (human) (UniProt P55899); test: SPR Biacore 3000, IgG immobilised, monomeric hFcRn injected, pH 7.4
[5] = molecular target: recombinant human FcRn (SPR of Example 2) (human) (UniProt P55899); test: SPR Biacore T200, IgG immobilised, hFcRn 1000.0-15.6 nM injected, pH 6.0, 25 C, 1:1 Langmuir
Sequence of recombinant human FcRn (SPR of Example 2) (human) (P55899 24-290 limits assumed, form in doubt): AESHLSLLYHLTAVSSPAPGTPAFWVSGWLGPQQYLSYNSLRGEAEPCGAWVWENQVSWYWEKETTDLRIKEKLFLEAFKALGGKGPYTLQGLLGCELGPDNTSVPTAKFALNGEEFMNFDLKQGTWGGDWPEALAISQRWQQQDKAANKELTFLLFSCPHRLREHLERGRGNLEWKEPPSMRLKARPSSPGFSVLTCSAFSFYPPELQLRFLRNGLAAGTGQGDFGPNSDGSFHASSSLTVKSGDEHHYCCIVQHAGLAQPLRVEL

[6] = molecular target: recombinant human FcRn (SPR of Example 2) (human) (UniProt P55899); test: SPR Biacore T200, pH 6.0, KD against IgG1-WT

Sequence of Monomeric His-tagged human FcRn (human) (P55899 24-290 limits assumed, form in doubt): as above

Substance	Fold change from WT (ELISA) pH 6.0 [1]	Kd [2]	koff [2]	Fold change from WT [3]	other results
h9C12 IgG1-L309K/Q311R/N434W/M428E (antibody)	6 fold				
h9C12 IgG1-M252S/Q311R/N434W/M428E (antibody)	6 fold				
h9C12 IgG1-M252Y/S254T/T256E (antibody)		0.093 µM	0.0078 s⁻¹	8.4 fold	
h9C12 IgG1-Q311R (antibody)		0.687 µM	0.0572 s⁻¹	1.1 fold	
h9C12 IgG1-Q311R/N434W (antibody)		0.0223 µM	0.0036 s⁻¹	35.1 fold	
h9C12 IgG1-Q311R/N434W/M428D (antibody)	3 fold				Kd [5]: 0.0294 µM; koff [5]: 0.0312 s⁻¹; Fold change from WT (KD) pH 6.0 [6]: 9.28 fold
h9C12 IgG1-Q311R/N434W/M428E (antibody)	6 fold	0.0385 µM	0.005 s⁻¹	20.3 fold	Kd [5]: 0.0093 µM; koff [5]: 0.0111 s⁻¹; Fold change from WT (KD) pH 6.0 [6]: 29.3 fold
h9C12 IgG1-Q311R/N434W/M428E/H433K (antibody)	9 fold				

Further lines, with some results ahead:

Fold change from WT (ELISA) pH 6.0 [1]	Kd [2]	koff [2]	Fold change from WT [3]	Substance	other results
6 fold				h9C12 IgG1-L309R/Q311R/N434W/M428E (antibody)	
6 fold				h9C12 IgG1-L309S/Q311R/N434W/M428E (antibody)	
	0.0148 µM	0.0032 s⁻¹	52.9 fold	h9C12 IgG1-N434W (antibody)	Kd [4]: 1.98 µM
3 fold				h9C12 IgG1-Q311R/N434P/M428E (antibody)	Kd [5]: 0.0242 µM; koff [5]: 0.0405 s⁻¹; Fold change from WT (KD) pH 6.0 [6]: 11.3 fold
